For this test, the target named is ribosomal protein uS14 (Escherichia coli (endogenous in K-12 …, UniProt P0AG59 1-101)). As to the kind of experiment: cryo-EM structure.

B1: catalytically inactive mutant of RNase I (H55F/H133F) (enzyme)
chain: LALQAKQYGDFDRYVLALSWQTGFCQSQHDRNRNERDECRLQTETTNKADFLTVFGLWPGLPKSVAARGVDERRWMRFGCATRPIPNLPEARASRMCSSPETGLSLETAAKLSEVMPGAGGRSCLERYEYAKFGACFGFDPDAYFGTMVRLNQEIKESEAGKFLADNYGKTVSRRDFDAAFAKSWGKENVKAVKLTCQGNPAYLTEIQISIKADAINAPLSANSFLPQPHPGNCGKTFVIDKAGY
Regarding B1, the binding result is “binds”.

(Values after article doi:10.1101/2024.07.29.605612 (bioRxiv, 2024).)
